The values that follow come from paper doi:10.1101/2024.11.06.622200.

The target of the test is purified recombinant myristoylated HIV-1 matrix protein (myrMA) (HIV-1 NL4-3).

On to “HIV-1 spacer peptide 2 (SP2), added in vitro”, for which the share of sub-images contributing to mature-like MA lattice classes on lipid monolayers, with SP2 (7% mature-like and 7% immature-like without SP2) was 47%.
